Data published in patent US20230201365A1 (BRIGHT PEAK THERAPEUTICS, published 2023).

What was measured:
[1] = molecular target: T1, recombinant biotinylated CD20 (human) (human, UniProt P11836 1-297, limits assumed, biotinylated (site not stated)); test: ELISA, antibody coated on plate, biotinylated recombinant CD20 titrated, streptavidin-HRP detection; mean EC50
T1 construct: also called hu CD20; B-lymphocyte antigen CD20
T1 sequence: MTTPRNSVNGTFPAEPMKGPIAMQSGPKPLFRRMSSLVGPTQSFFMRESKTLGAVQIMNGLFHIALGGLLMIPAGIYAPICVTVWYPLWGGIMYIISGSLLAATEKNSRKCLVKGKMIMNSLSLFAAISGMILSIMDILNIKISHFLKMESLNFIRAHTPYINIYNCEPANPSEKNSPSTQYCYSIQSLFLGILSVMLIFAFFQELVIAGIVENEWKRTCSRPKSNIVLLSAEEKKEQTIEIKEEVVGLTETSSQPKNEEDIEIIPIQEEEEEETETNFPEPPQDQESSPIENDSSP
Procedure: (§1) The interaction of the unmodified and of conjugated anti-CD20 antibodies with CD20 were measured by ELISA assay. […] Plates were washed four times with 100 μl of PBS-0.02% Tween20. and blocked with 25 μl of PBS-0.02% Tween20-1% BSA at 37° C. with shaking at 600 RPM, for 1 h. Plates were then washed four times with 100 μl of PBS-0.02% Tween20. 25 μl of recombinant biotinylated CD20 were added in seven-fold serial dilutions starting at 18 nM down to 10 pM into PBS-0.02% Tween20-0.1% BSA and incubated at 37° C. during 2 h. Plates were then washed four times with 100 μl of PBS-0.02% Tween20. 25 ul of Streptavidin-Horseradish peroxidase (#RABHRP3, Merck, Buchs, Switzerland) diluted at 1:500 into PBS-0.02% Tween20-0.1% BSA were added to each well and incubated at room temperature for 30 min. Plates were then washed four times with 100 μl of PBS-0.02% Tween20. Fifty microliters of TMB substrate reagent (#CL07, Merck, Buchs, Switzerland) were added to each well and incubated at 37° C. during 5min After 5 min at 37° C., Horseradish peroxidase reaction is stopped by adding 50 μl/well of 0.5M H₂SO₄ stop solution. ELISA signal is then measured at 450 nm on an ENSPIRE® plate reader from Perkin Elmer (Schwerzenbach, Switzerland).

[2] = molecular target: T2, Recombinant Human Fc gamma RIIIA/CD16a Protein (human, UniProt P08637 17-208); test: ELISA, antibody coated at 2.5 ug/ml, soluble Fc gamma receptor titrated, HRP detection; mean EC50
T2 construct: Bought recombinant protein; also called hu FcγRIII (CD16a); huFcgRIII
Procedure: (§2) To analyze Fc Receptor gamma binding test molecules were diluted to 2.5 ug/ml in PBS and plates were coated overnight at 4° C. The next day the assay plates were washed four times with 100 ul of wash buffer: PBS+0.02% Tween 20 and blocked with PBS+1% BSA, for one hour at 37° C., with shaking at 600 RPM. The blocked plates were then washed four times with 100 ul wash buffer. Diluted FcRgamma (Reagents listed, below) was freshly diluted in wash buffer. Plates were then incubated with 25 ul of diluted Fc for two hours with shaking at 600 RPMs, then washed with 100 ul wash buffer, four times. The wells were then incubated with 25 ul of either 1:500 diluted streptavidin-Horseradish peroxidase (HRP) for detection of human FcgR or 1:500 diluted Anti-HIS tag antibody-HRP in wash buffer. The HPR detection molecules were incubated in the wells at room temperature for one hour with shaking at 600 RPMs. Plate wells were washed with 100 ul of wash buffer, four times. Plates were detected using the chromogenic HRP substrate 3,3′,5,5;-tetramethylbenzidine (TMB). Samples were read using a spectrophotometer plate reader with OD set to 450 nm. Reagents: Recombinant Mouse Fc gamma RI/CD64 Protein, CF R&D Systems #2074-FC-050; Recombinant Human Fc gamma RI/CD64 Protein, CF R&D Systems #1257-FC-050; Recombinant Mouse Fc gamma RIII/CD16 Protein, CF R&D Systems #1960-FC-050; Recombinant Human Fc gamma RIIA/CD32a (H167) Protein, CF R&D Systems #9595-CD-050; Recombinant Mouse Fc gamma R4/CD16-2 Protein, CF R&D Systems #1974-CD-050; Recombinant Human Fc gamma RIIIA/CD16a Protein, CF R&D Systems #4325-FC-050; Recombinant Human Fc gamma RIIB/CD32b Avi-tag Protein, CF R&D Systems #AVI1875-050; Recombinant Mouse Fc gamma RIIB/CD32b Protein, CF R&D Systems #1460-CD-050; His Tag Horseradish Peroxidase-conjugated Antibody, R&D Systems #MAB050H; Streptavidin-HRP, Sigma #RABHRP3-600 µL.

[3] = molecular target: T3, Recombinant Mouse Fc gamma RIII/CD16 Protein (mouse, UniProt P08508 31-215); test: as above
T3 construct: Bought recombinant protein; also called mu FcγRIII (CD16); murine CD16
T3 sequence (looked up): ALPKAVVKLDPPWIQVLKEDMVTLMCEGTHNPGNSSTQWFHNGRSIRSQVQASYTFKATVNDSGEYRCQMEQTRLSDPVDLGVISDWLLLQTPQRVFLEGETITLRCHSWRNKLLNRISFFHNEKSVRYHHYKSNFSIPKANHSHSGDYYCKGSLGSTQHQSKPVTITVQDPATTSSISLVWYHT
Procedure: as §2

[4] = molecular target: T4, Recombinant Mouse Fc gamma RI/CD64 Protein (mouse, UniProt P26151 25-297); test: as above
T4 construct: Bought recombinant protein; also called mu FcγRI (CD64); murine CD64
T4 sequence (looked up): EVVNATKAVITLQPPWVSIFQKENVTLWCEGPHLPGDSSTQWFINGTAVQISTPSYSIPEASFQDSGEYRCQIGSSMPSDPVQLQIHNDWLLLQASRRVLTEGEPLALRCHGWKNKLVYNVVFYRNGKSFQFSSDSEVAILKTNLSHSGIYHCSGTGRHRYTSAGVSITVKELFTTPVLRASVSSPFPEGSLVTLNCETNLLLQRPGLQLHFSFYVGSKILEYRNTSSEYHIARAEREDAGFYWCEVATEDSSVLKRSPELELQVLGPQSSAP
Procedure: as §2

[5] = molecular target: T5, Recombinant Human Fc gamma RIIA/CD32a (H167) Protein (human, UniProt P12318 36-218); test: as above
T5 construct: Bought recombinant protein; H167 variant as printed; also called hu FcγRIIa (CD32a); human CD32a
T5 sequence (looked up): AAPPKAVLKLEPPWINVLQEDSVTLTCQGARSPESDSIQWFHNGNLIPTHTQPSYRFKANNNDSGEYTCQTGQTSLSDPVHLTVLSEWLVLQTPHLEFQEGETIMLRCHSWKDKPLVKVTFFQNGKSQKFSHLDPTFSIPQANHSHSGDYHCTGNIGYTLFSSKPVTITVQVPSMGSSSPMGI
Procedure: as §2

[6] = molecular target: T6, Recombinant Human Fc gamma RIIB/CD32b Avi-tag Protein (human, UniProt P31994 46-217); test: as above
T6 construct: Bought recombinant protein with Avi-tag; also called hu FcγRIIb (CD32b); human CD32b
T6 sequence (looked up): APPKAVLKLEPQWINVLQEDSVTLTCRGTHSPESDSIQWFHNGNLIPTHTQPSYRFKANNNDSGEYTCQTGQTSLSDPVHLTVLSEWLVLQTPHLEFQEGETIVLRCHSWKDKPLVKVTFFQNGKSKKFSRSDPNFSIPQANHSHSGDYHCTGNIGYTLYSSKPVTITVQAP
Procedure: as §2

[7] = molecular target: T7, Recombinant Human Fc gamma RI/CD64 Protein (human, UniProt P12314 16-288); test: as above
T7 construct: Bought recombinant protein; also called hu FcγRI (CD64)
Procedure: as §2

[8] = molecular target: T1, recombinant biotinylated CD20 (human); test: ELISA, antibody coated on the plate, biotinylated CD20 titrated, streptavidin-HRP detection, OD 450 nm
Procedure: as §1

T7 sequence (P12314 16-288 limits assumed): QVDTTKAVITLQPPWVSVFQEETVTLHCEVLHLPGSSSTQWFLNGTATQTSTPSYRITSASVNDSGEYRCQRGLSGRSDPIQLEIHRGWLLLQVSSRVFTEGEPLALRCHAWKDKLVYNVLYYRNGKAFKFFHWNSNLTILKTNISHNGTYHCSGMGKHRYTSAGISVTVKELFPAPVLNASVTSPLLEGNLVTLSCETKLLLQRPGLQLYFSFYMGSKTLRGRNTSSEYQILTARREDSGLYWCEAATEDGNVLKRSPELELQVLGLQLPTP
T2 sequence (P08637 17-208 limits assumed): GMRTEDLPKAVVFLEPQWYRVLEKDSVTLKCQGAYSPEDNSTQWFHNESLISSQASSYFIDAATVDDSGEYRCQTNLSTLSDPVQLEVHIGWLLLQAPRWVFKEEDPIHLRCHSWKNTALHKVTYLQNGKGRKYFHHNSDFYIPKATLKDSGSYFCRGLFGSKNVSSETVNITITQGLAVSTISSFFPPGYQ

B1: biosimilar Rituximab (unconjugated parent anti-CD20 antibody) (antibody, human IgG1, kappa)
heavy: not shown
light: QIVLSQSPAILSASPGEKVTMTCRASSSVSYIHWFQQKPGSSPKPWIYATSNLASGVPVRFSGSGSGTSYSLTISRVEAEDAATYYCQQWTSNPPTFGGGTKLEIKRTVAAPSVFIFPPSDEQLKSGTASVVCLLNNFYPREAKVQWKVDNALQSGNSQESVTEQDSKDSTYSLSSTLTLSKADYEKHKVYACEVTHQGLSSPVTKSFNRGEC
notes: The antibody tested is a biosimilar of rituximab; also called aCD20 AB; parent antibody
[1]
  EC50: 0.08 nM
[2]
  EC50: 185 nM
[3]
  EC50: 133 nM
[4]
  EC50: 35 nM
[5]
  EC50: 740 nM
[6]
  EC50: 880 nM
[7]
  EC50: 0.23 nM
[8]
  EC50 (read off the curve): ~0.04 nM
